The values below come from US20160297851A1, “BROAD SPECTRUM […]” (priority 2012, published 2016).

The target of assay [1] is P. aeruginosa PAO1 SPase (LepB) P84L, in the bacteria (P. aeruginosa), Q9I5G7. The assay can be described thus: cell-based or functional assay.
In assay [2] the target is E. coli SPase with each of the other 19 amino acids at residue 84, in mutant strains of E. coli. The assay can be described thus: cell-based or functional assay.

B1: arylomycin C16 (peptide)
peptide: SAGXAY
modifications: here or on the partner: C16 fatty acyl (palmitoyl) tail on the N-terminus of N-methyl-D-Ser2; D-Ala3; N-methyl-4-hydroxyphenylglycine (MeHpg) at 5, written X; biaryl bridge between MeHpg5 and Tyr7 (macrocycle MeHpg5-Ala6-Tyr7); free C-terminal carboxyl; the filing counts the lipid tail as position 1
On to B1, for which the figures for the MIC in assay [1] and in assay [2] were 8 µg/mL and less than 16 µg/mL, respectively.
